The values that follow come from patent publication US20250042969A1, “ANTIGEN DISCOVERY FOR T CELL RECEPTORS ISOLATED FROM PATIENT TUMORS RECOGNIZING WILD-TYPE ANTIGENS AND POTENT PEPTIDE MIMOTOPES” (The Board of Trustees of the Leland Stanford Junior …, priority 2017, published 2025).

The target in assay [1] is …-HLA-A*02:01 single-chain trimer displayed on yeast (human). Kind of assay: flow cytometry of yeast displaying [..]-HLA-A*02:01, 400 nM DMF5 TCR tetramerized on SA-647 against anti-HA; the panel with SA-647 alone gives 10.80 in the same quadrant. In general terms: A flow cytometer gives signals particle by particle.
Assay [2] has the same target. Kind of assay: flow cytometry histogram of yeast displaying … with HLA-A*02:01, '+' (MA2.1 then secondary antibody); the row '-' gives 7.270 in the same gate.
Assay [3] shares this target. Kind of assay: flow cytometry histogram of yeast displaying … with HLA-A*02:01, '+' (MA2.1 then secondary antibody); the row '-' gives 6.542 in the same gate.
Assay [4] has the same target. Kind of assay: flow cytometry histogram of yeast displaying … with HLA-A*02:01, '+' (MA2.1 then secondary antibody); the row '-' gives 5.574 in the same gate.
Assay [5] shares this target. Kind of assay: flow cytometry histogram of yeast displaying … with HLA-A*02:01, '+' (MA2.1 then secondary antibody); the row '-' gives 6.825 in the same gate.
Assay [6] shares this target. Briefly: flow cytometry histogram of yeast displaying … with HLA-A*02:01, '+' (MA2.1 then secondary antibody); the row '-' gives 6.578 in the same gate.
For assay [7] the target is unchanged. Briefly: flow cytometry histogram of yeast displaying … with HLA-A*02:01, '+' (MA2.1 then secondary antibody); the row '-' gives 9.655 in the same gate.

For “DMF5 TCR, soluble, multimerized on streptavidin”, the percent of yeast SA-647+ HA-488+ (upper right quadrant) in assay [1] was 55.8.
As to MA2.1 antibody, the percent of yeast in the MA2.1-positive gate in assay [2] is 68.6; in assay [3] it was 55.5; in assay [4], 69; in assay [5], 74.2; in assay [6], 74.2; in assay [7], 73.7.
